B1: Protection of telomeres protein 1 (Mus musculus), Q91WC1 (parent)
chain: MSLVSTAPYTYTPLNLLKEGTIANVYGVVKFFKPPYVSKGTDYCSVVTIVDQTNVKLTCMLFSGNYEALPIIYKVGDIVRFHRLKIQVYKNELQGINCSGFASLTFEGTVGMPVTARTSSKVFSFTPQDQKMVEALRVWASKHISASSTLVQLCDAQPMQYYDLTCQLLGKAQVDSTAFLLKVWDGTQTVLPSWRVSTQDLTFEGDLSHIERLQSLVVDILVYDNHVQVARSIEVGCFLRLYSLHTKLQPGNSETSSSESLRLEFHLHGGTSYGRGIRVLPDTSPCVDQLKKALEGANLPVTETSTGICQSENGDSSALSNSGSGAVSPYEEERCQQVSATILTNHQHLEKTPLCAILTQKAPQQYRVRAKLRSYLPRRLSQSVKLLCPKCHSVQEVPHGDSLDKILQDAATEAPDIKLKATSLYYSKVWTTEDQGGRQVAVHFVKNNGILPASSECLILIEGGRLCEVSKLSSKFHSVMPVRSGPESLELLTLSAPFLIQGKVHHYGCKQCSSLKPIQNLNSRFHKGPWTPSSVAEALGVVPLQYVFVMVFTLDDGTGVLEAYLKDSEHFFKIPASEVLTDDDLQRSLETIMDMICPPGIKVDAYPWLECLLKSYNVTIGTERRICYQIFDTTVAENVV
partner: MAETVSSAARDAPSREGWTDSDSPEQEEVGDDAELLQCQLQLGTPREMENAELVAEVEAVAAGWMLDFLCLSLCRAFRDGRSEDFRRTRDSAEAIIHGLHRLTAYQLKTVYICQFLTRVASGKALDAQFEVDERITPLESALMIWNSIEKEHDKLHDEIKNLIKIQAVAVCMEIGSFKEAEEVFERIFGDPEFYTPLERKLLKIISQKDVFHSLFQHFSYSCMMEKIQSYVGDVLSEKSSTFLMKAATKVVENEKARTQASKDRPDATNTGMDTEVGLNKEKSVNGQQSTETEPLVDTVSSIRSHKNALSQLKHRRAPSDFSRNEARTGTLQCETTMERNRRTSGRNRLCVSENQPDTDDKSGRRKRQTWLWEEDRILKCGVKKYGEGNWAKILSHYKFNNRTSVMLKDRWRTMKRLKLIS

Variants of: B1
Details: with terf1_mouse Terf1, P70371

Row | Variant | effect of a mutation on the interaction
1 | Y223A | disrupting interaction

— IntAct's records for PubMed 17053789
